Assay results reported in patent US20250003951A1 (OXFORD UNIVERSITY INNOVATION, published 2025).
One block for each binder: values may come before it.

Columns and labels:
Assay in all cases: cell-based or functional assay
OX1149-290 = target: T1, OX1149-290 (human)
T1 peptide: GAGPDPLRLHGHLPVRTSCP

OX993-414 = target: T2, OX993-414 (human)
T2 peptide: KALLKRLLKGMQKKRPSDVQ

OX993-413 = target: T3, OX993-413 (human)
T3 peptide: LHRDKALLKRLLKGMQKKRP

OX289-205 = target: T4, OX289-205 (human)
T4 peptide: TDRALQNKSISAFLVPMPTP

OX289-075 = target: T5, OX289-075 (human)
T5 peptide: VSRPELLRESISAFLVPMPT

OX628-309 = target: T6, OX628-309 (human)
T6 peptide: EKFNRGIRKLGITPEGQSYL

OX628-308 = target: T7, OX628-308 (human)
T7 peptide: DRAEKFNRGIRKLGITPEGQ

OX289-221 = target: T8, OX289-221 (human)
T8 peptide: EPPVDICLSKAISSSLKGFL

OX802-321 = target: T9, OX802-321 (human)
T9 peptide: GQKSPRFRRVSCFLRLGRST

OX802-322 = target: T10, OX802-322 (human)
T10 peptide: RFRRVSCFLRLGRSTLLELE

OX289-052 = target: T11, OX289-052 (human)
T11 peptide: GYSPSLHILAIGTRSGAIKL

- Clone size (percent repertoire), IFNγ+ sorted T cells after peptide stimulation (OX1149-290): 4.8 % of repertoire
B1: OX1149 Peptide 290 clone 3 TCR (TCR)
TCR alpha 1: GDAKTTQPNSMESNEEEPVHLPCNHSTISGTDYIHWYRQLPSQGPEYVIHGLTSNVNNRMASLAIAEDRKSSTLILHRATLRDAAVYYCILVEGNEKLTFGTGTRLTIIPNIQNPDPAVYQLRD
TCR alpha 2: SQELEQSPQSLIVQEGKNLTINCTSSKTLYGLYWYKQKYGEGLIFLMMLQKGGEEKSHEKITAKLDEKKQQSSLHITASQPSHAGIYLCGADVQGSQGNLIFGKGTKLSVKPNIQNPDPAVYQLRD
TCR beta: EPEVTQTPSHQVTQMGQEVILRCVPISNHLYFYWYRQILGQKVEFLVSFYNNEISEKSEIFDDQFSVERPDGSNFTLKIRSTKLEDSAMYFCASRLGGRTTEAFFGQGTRLTVVEDLNKVFPPEVAVFEPS

- Clone size (percent repertoire), IFNγ+ sorted T cells after peptide stimulation (OX1149-290): 20.4 % of repertoire
B7: OX1149 Peptide 290 clone 1 TCR (TCR, V domains shown)
V domain 1: GENVEQHPSTLSVQEGDSAVIKCTYSDSASNYFPWYKQELGKRPQLIIDIRSNVGEKKDQRIAVTLNKTAKHFSLHITETQPEDSAVYFCAASIATDKLIFGTGTRLQVFP
V domain 2: KAGVTQTPRYLIKTRGQQVTLSCSPISGHRSVSWYQQTPGQGLQFLFEYFSETQRNKGNFPGRFSGRQFSNSRSEMNVSTLELGDSALYLCASSWRGQGEGYTFGSGTRLTVVE

- Clone size (percent repertoire), IFNγ+ sorted T cells after peptide stimulation (OX628-309): 76.1 % of repertoire
- Clone size (percent repertoire), IFNγ+ sorted T cells after peptide stimulation (OX628-308): 76.1 % of repertoire
B8: OX885 Peptides OX628-308/309 clone 1 TCR (TCR, V domains shown)
V domain 1: KTTQPPSMDCAEGRAANLPCNHSTISGNEYVYWYRQIHSQGPQYIIHGLKNNETNEMASLIITEDRKSSTLILPHATLRDTAVYYCIVRVAVTNAGKSTFGDGTTLTVKP
V domain 2: EAQVTQNPRYLITVTGKKLTVTCSQNMNHEYMSWYRQDPGLGLRQIYYSMNVEVTDKGDVPEGYKVSRKEKRNFPLILESPSPNQTSLYFCASRYYSADTQYFGPGTRLTVLE

- Clone size (percent repertoire), IFNγ+ sorted T cells after peptide stimulation (OX289-221): 10.9 % of repertoire
B10: OX289 Peptide 221 clone 2 TCR (TCR, V domains shown)
V domain 1: GDAKTTQPNSMESNEEEPVHLPCNHSTISGTDYIHWYRQLPSQGPEYVIHGLTSNVNNRMASLAIAEDRKSSTLILHRATLRDAAVYYCILRDVGGSEKLVFGKGTKLTVNP
V domain 2: AVVSQHPSWVICKSGTSVKIECRSLDFQATTMFWYRQFPKQSLMLMATSNEGSKATYEQGVEKDKFLINHASLTLSTLTVTSAHPEDSSFYICSAKGLENQPQHFGDGTRLSILE

- Clone size (percent repertoire), IFNγ+ sorted T cells after peptide stimulation (OX802-321): 47.4 % of repertoire
- Clone size (percent repertoire), IFNγ+ sorted T cells after peptide stimulation (OX802-322): 47.4 % of repertoire
B11: OX802 Peptides 321/322 clone 1 TCR (TCR)
TCR alpha 1: AGQSLEQPSEVTAVEGAIVQINCTYQTSGFYGLSWYQQHDGGAPTFLSYNALDGLEETGRFSSFLSRSDSYGYLLLQELQMKDSASYFCAVLKKGYALNFGKGTSLLVTPHIQNPDPAVYQLRD
TCR alpha 2: KDQVFQPSTVASSEGAVVEIFCNHSVSNAYNFFWYLHFPGCAPRLLVKGSKPSQQGRYNMTYERFSSSLLILQVREADAAVYYCAVAGGYNKLIFGAGTRLAVHPYIQNPDPAVYQLRD
TCR beta: EAGVVQSPRYKIIEKKQPVAFWCNPISGHNTLYWYLQNLGQGPELLIRYENEEAVDDSQLPKDRFSAERLKGVDSTLKIQPAELGDSAVYLCASSLEAGDSYEQYFGPGTRLTVTEDLKNVFPPEVAVFEPS

- Clone size (percent repertoire), IFNγ+ sorted T cells after peptide stimulation (OX289-052): 27.3 % of repertoire
B12: OX289 Peptide 52 clone 1 TCR (TCR)
TCR alpha: AQSVTQPDIHITVSEGASLELRCNYSYGATPYLFWYVQSPGQGLQLLLKYFSGDTLVQGIKGFEAEFKRSQSSFNLRKPSVHWSDAAEYFCAVGAYSSASKIIFGSGTRLSIRPNIQNPDPAVYQLRD
TCR beta 1: EPEVTQTPSHQVTQMGQEVILRCVPISNHLYFYWYRQILGQKVEFLVSFYNNEISEKSEIFDDQFSVERPDGSNFTLKIRSTKLEDSAMYFCASRDRGSGANVLTFGAGSRLTVLEDLKNVFPPEVAVFEPS
TCR beta 2: AVVSQHPSWVICKSGTSVKIECRSLDFQATTMFWYRQFPKQSLMLMATSNEGSKATYEQGVEKDKFLINHASLTLSTLTVTSAHPEDSSFYICSGGWGPNTGELFFGEGSRLTVLEDLKNVFPPEVAVFEPS

- Clone size (percent repertoire), IFNγ+ sorted T cells after peptide stimulation (OX802-321): 20 % of repertoire
- Clone size (percent repertoire), IFNγ+ sorted T cells after peptide stimulation (OX802-322): 20 % of repertoire
B13: OX802 Peptides 321/322 clone 2 TCR (TCR, V domains shown)
V domain 1: KDQVFQPSTVASSEGAVVEIFCNHSVSNAYNFFWYLHFPGCAPRLLVKGSKPSQQGRYNMTYERFSSSLLILQVREADAAVYYCAVTGGYNKLIFGAGTRLAVHP
V domain 2: EAGVVQSPRYKIIEKKQPVAFWCNPISGHNTLYWYLQNLGQGPELLIRYENEEAVDDSQLPKDRFSAERLKGVDSTLKIQPAELGDSAVYLCASSLEAGDSYEQYFGPGTRLTVTE

Second part, the binder before the results:

B2: OX993 Peptides 413/414 clone 1 TCR (TCR)
TCR alpha 1: GESVGLHLPTLSVQEGDNSIINCAYSNSASDYFIWYKQESGKGPQFIIDIRSNMDKRQGQRVTVLLNKTVKHLSLQIAATQPGDSAVYFCAEIGSGAGSYQLTFGKGTKLSVIPNIQNPDPAVYQLRD
TCR alpha 2: GESVGLHLPTLSVQEGDNSIINCAYSNSASDYFIWYKQESGKGPQFIIDIRSNMDKRQGQRVTVLLNKTVKHLSLQIAATQPGDSAVYFCAENQGGSSYKLIFGSGTRLLVRPDIQNPDPAVYQLRD
TCR beta: DTGVSQNPRHKITKRGQNVTFRCDPISEHNRLYWYRQTLGQGPEFLTYFQNEAQLEKSRLLSDRFSAERPKGSFSTLEIQRTEQGDSAMYLCASSSQSGVDTEAFFGQGTRLTVVEDLNKVFPPEVAVFEPS
- Clone size (percent repertoire), IFNγ+ sorted T cells after peptide stimulation (OX993-414): 26.7 % of repertoire
- Clone size (percent repertoire), IFNγ+ sorted T cells after peptide stimulation (OX993-413): 26.7 % of repertoire

B3: OX289 Peptides 75/205 clone 3 TCR (TCR, V domains shown)
V domain 1: NSVTQMEGPVTLSEEAFLTINCTYTATGYPSLFWYVQYPGEGLQLLLKATKADDKGSNKGFEATYRKETTSFHLEKGSVQVSDSAVYFCALRGRNQGGKLIFGQGTELSVKP
V domain 2: GAVVSQHPSRVICKSGTSVKIECRSLDFQATTMFWYRQFPKQSLMLMATSNEGSKATYEQGVEKDKFLINHASLTLSTLTVTSAHPEDSSFYICSARLSSGGGYEQFFGPGTRLTVLE
- Clone size (percent repertoire), IFNγ+ sorted T cells after peptide stimulation (OX289-205): 13.9 % of repertoire
- Clone size (percent repertoire), IFNγ+ sorted T cells after peptide stimulation (OX289-075): 13.9 % of repertoire

B4: OX993 Peptides 413/414 clone 2 TCR (TCR)
TCR alpha: AQSVTQLGSHVSVSEGALVLLRCNYSSSVPPYLFWYVQYPNQGLQLLLKYTTGATLVKGINGFEAEFKKSETSFHLTKPSAHMSDAAEYFCAVSPPAQKLVFGTGTRLLVSPNIQNPDPAVYQLRD
TCR beta 1: NAGVTQTPKFQVLKTGQSMTLQCAQDMNHEYMSWYRQDPGMGLRLIHYSVGAGITDQGEVPNGYNVSRSTTEDFPLRLLSAAPSQTSVYFCASQETGVGGELFFGEGSRLTVLEDLKNVFPPEVAVFEPS
TCR beta 2: NAGVTQTPKFQVLKTGQSMTLQCAQDMNHEYMSWYRQDPGMGLRLIHYSVGAGITDQGEVPNGYNVSRSTTEDFPLRLLSAAPSQTSVYFCASSTTAVVSPLHFGNGTRLTVTEDLNKVFPPEVAVFEPS
- Clone size (percent repertoire), IFNγ+ sorted T cells after peptide stimulation (OX993-414): 13.7 % of repertoire
- Clone size (percent repertoire), IFNγ+ sorted T cells after peptide stimulation (OX993-413): 13.7 % of repertoire

B5: OX289 Peptides 75/205 clone 1 TCR (TCR)
TCR alpha 1: NSVTQMEGPVTLSEEAFLTINCTYTATGYPSLFWYVQYPGEGLQLLLKATKADDKGSNKGFEATYRKETTSFHLEKGSVQVSDSAVYFCALRHKAAGNKLTFGGGTRVLVKPNIQNPDPAVYQLRD
TCR alpha 2: QQKEKSDQQQVKQSPQSLIVQKGGISIINCAYENTAFDYFPWYQQFPGKGPALLIAIRPDVSEKKEGRFTISFNKSAKQFSLHIMDSQPGDSATYFCAALFDGGSQGNLIFGKGTKLSVKPNIQNPDPAVYQLRD
TCR beta: AVVSQHPSWVICKSGTSVKIECRSLDFQATTMFWYRQFPKQSLMLMATSNEGSKATYEQGVEKDKFLINHASLTLSTLTVTSAHPEDSSFYICSASGPEKLFFGSGTQLSVLEDLNKVFPPEVAVFEPS
- Clone size (percent repertoire), IFNγ+ sorted T cells after peptide stimulation (OX289-205): 42.4 % of repertoire
- Clone size (percent repertoire), IFNγ+ sorted T cells after peptide stimulation (OX289-075): 42.4 % of repertoire

B6: OX993 Peptides 413/414 clone 3 TCR (TCR, V domains shown)
V domain 1: RGEDVEQSLFLSVREGDSSVINCTYTDSSSTYLYWYKQEPGAGLQLLTYIFSNMDMKQDQRLTVLLNKKDKHLSLRIADTQTGDSAIYFCAEKKEGFKTIFGAGTRLFVKA
V domain 2: NAGVTQTPKFQVLKTGQSMTLQCAQDMNHEYMSWYRQDPGMGLRLIHYSVGAGITDQGEVPNGYNVSRSTTEDFPLRLLSAAPSQTSVYFCASQETGVGGELFFGEGSRLTVLE
- Clone size (percent repertoire), IFNγ+ sorted T cells after peptide stimulation (OX993-414): 11.6 % of repertoire
- Clone size (percent repertoire), IFNγ+ sorted T cells after peptide stimulation (OX993-413): 11.6 % of repertoire

B9: OX1149 Peptide 290 clone 2 TCR (TCR, V domains shown)
V domain 1: RGNGKNQVEQSPQSLIILEGKNCTLQCNYTVSPFSNLRWYKQDTGRGPVSLTIMTFSENTKSNGRYTATLDADTKQSSLHITASQLSDSASYICVVTGGANNLFFGTGTRLTVIP
V domain 2: KAGVTQTPRYLIKTRGQQVTLSCSPISGHRSVSWYQQTPGQGLQFLFEYFSETQRNKGNFPGRFSGRQFSNSRSEMNVSTLELGDSALYLCASSEAGEWTQYFGPGTRLTVLE
- Clone size (percent repertoire), IFNγ+ sorted T cells after peptide stimulation (OX1149-290): 7 % of repertoire

B14: OX289 Peptide 221 clone 1 TCR (TCR, V domains shown)
V domain 1: SLAKTTQPISMDSYEGQEVNITCSHNNIATNDYITWYQQFPSQGPRFIIQGYKTKVTNEVASLFIPADRKSSTLSLPRVSLSDTAVYYCLVVPVYNQGGKLIFGQGTELSVKP
V domain 2: KAGVTQTPRYLIKTRGQQVTLSCSPISGHRSVSWYQQTPGQGLQFLFEYFSETQRNKGNFPGRFSGRQFSNSRSEMNVSTLELGDSALYLCASSSGTSGMGETQYFGPGTRLLVLE
- Clone size (percent repertoire), IFNγ+ sorted T cells after peptide stimulation (OX289-221): 65.4 % of repertoire

B15: OX289 Peptide 52 clone 2 TCR (TCR, V domains shown)
V domain 1: EDKVVQSPLSLVVHEGDTVTLNCSYEVTNFRSLLWYKQEKKAPTFLFMLTSSGIEKKSGRLSSILDKKELSSILNITATQTGDSAIYLCAVGHFSSRSSGSARQLTFGSGTQLTVLP
V domain 2: DAGVIQSPRHEVTEMGQEVTLRCKPISGHNSLFWYRQTMMRGLELLIYFNNNVPIDDSGMPEDRFSAKMPNASFSTLKIQPSEPRDSAVYFCASSLKVGVDSSYNEQFFGPGTRLTVLE
- Clone size (percent repertoire), IFNγ+ sorted T cells after peptide stimulation (OX289-052): 10.7 % of repertoire
